The text below walks through data of patent US6107069A, “Recombinant kynurenine-3-hydroxylase enzyme and process for its preparation” (priority 1996, dated 2000).

Data set [1] in a line: Activity of recombinant kyn-3-OHase expressed in E. coli (conversion of L-kyn to 3-OH-Kyn). The format is biochemical, human. The note with it: cells induced 2 h at 37° C. with 1 mM IPTG; 500 μM L-kyn, 1 hour at 37° C. The procedure:
Recombinant kyn-3-OHase activity measured in cells grown at 37° C. until the OD600 reached 0.6, induced for 2 hours at 37° C. adding 1 mM IPTG was about 10 nmol/h·mg protein, enzymatic activity of uninduced cells in the same conditions was less than 5% (homogenates incubated for 1 hour at 37° C. with 500 μM L-kyn; see Example 5c).

The nature of data set [2]: Rat kyn-3-OHase activity expressed in X. laevis oocytes (conversion of L-kyn to 3-OH-Kyn). It is filed as biochemical. The procedure: Individual oocytes of stages were obtained by gentle agitation in ND solution plus 1-2mg/ml collagenase for 60-90 min. They were then maintained at 18° C. in ND solution enriched with 1.8 mM CaCl2 and 20 mg/l gentamycin. Oocytes of stages 5 and 6 were injected 24 hours later with 50 nl RNA or water (N. Dascal and I. Lotan 1992. Methods in Mol. Biol. 13: 205-225).
Oocytes were injected with a Drummond Nanoject microdispenser. To avoid accidental injection into the nucleus, the needle was inserted close to the equator or in the vegetal (light) half of the oocytes. 1-3 days after injection the oocytes were assayed for kyn-3-OHase.
Plasmid DNA was isolated by standard procedures (alkaline lysis followed by a purification on Qiagen resin; Kontron Zurich). Plasmids were linearized with Not I and used for in vitro synthesis and capping of cRNA using T7 RNA polymerase (Stratagene) and following the supplier's instructions. Initially the library was divided into 25 pools of ~2000 colonies; cRNA obtained transcribing the insert of each pool of colonies was injected in the oocytes and screened for the expressed kyn-3-Ohase activity (See Example 1c for the methods). The positive pool identified for its kyn-3-OHase expressed activity (175 pmoles/h/mg protein: about 30 fold higher than that induced by the injection of total kidney poly (A)^+ RNA) was then split into several sub-pools and assayed with the same procedure.
Xenopus l. oocytes were first injected with 25 ng of poly(A)^+ RNA isolated from rat kidney.
Increasing doses (range 0.1-25 ng) of cRNA, obtained from the positive clone, were injected into oocytes which were then tested for kyn-3-OHase activity in the presence of 100 mM of L-kyn. A linear dose-dependent effect was observed up to 5 ng cRNA/oocyte. At this dose the kyn-3-OHase activity was 35.7 nmoles/h/mg protein. No further increase of the activity was measured when higher cRNA doses were injected.

For data set [3] the following is noted: 5 steps purification from rat liver (Nisimoto 1975); cited from earlier work.
The conditions of data set [4]: purified from rat liver (Nisimoto 1975); cited from earlier work.
The mark [5] stands for this setting: last round of library screening, cRNA-injected oocytes.

B1: Recombinant kyn-3-OHase: human kynurenine-3-hydroxylase, deduced protein of 486 amino acid residues, expressed in E. coli (protein, UniProt O15229 1-486, looked up)
Kynurenine 3-monooxygenase: MDSSVIQRKKVAVIGGGLVGSLQACFLAKRNFQIDVYEAREDTRVATFTRGRSINLALSHRGRQALKAVGLEDQIVSQGIPMRARMIHSLSGKKSAIPYGTKSQYILSVSRENLNKDLLTAAEKYPNVKMHFNHRLLKCNPEEGMITVLGSDKVPKDVTCDLIVGCDGAYSTVRSHLMKKPRFDYSQQYIPHGYMELTIPPKNGDYAMEPNYLHIWPRNTFMMIALPNMNKSFTCTLFMPFEEFEKLLTSNDVVDFFQKYFPDAIPLIGEKLLVQDFFLLPAQPMISVKCSSFHFKSHCVLLGDAAHAIVPFFGQGMNAGFEDCLVFDELMDKFSNDLSLCLPVFSRLRIPDDHAISDLSMYNYIEMRAHVNSSWFIFQKNMERFLHAIMPSTFIPLYTMVTFSRIRYHEAVQRWHWQKKVINKGLFFLGSLIAISSTYLLIHYMSPRSFLRLRRPWNWIAHFRNTTCFPAKAVDSLEQISNLISR
In the case of B1, the “Recombinant kyn-3-OHase activity” value in data set [1] is recorded as “about 10 nmol/h·mg protein”.

B2: positive clone: cDNA clone encoding rat kyn-3-OHase, a deduced protein of 478 amino acid residues, expressed in Xenopus oocytes (protein)
chain: MASSDTEGKRVVVIGGGLVGALNACFLAKRNFQVDVYEAREDIRVANFMRGRSINLALSYRGRQALKAVGLEDQIVSKGVPMKARMIHSLSGKKSAIPYGNKSQYILSISREKLNKDLLTAVESYPNAKVHFGHKLSKCCPEEGILTMLGPNKVPRDITCDLIVGCDGAYSTVRAHLMKKPRFDYSQQYIPHGYMELTIPPKNGEYAMEPNCLHIWPRNAFMMIALPNMDKSFTCTLFMSFEEFEKLPTHSDVLDFFQKNFPDAIPLMGEQALMRDFFLLPAQPMISVKCSPFHLKSRCVLMGDAAHAIVPFFGQGMNAGFEDCLVFDELMDKFNNDLSVCLPEFSRFRIPDDHAISDLSMYNYIEMRAHVNSRWFLFQRLLDKFLHALMPSTFIPLYTMVAFTRIRYHEAVLRWHWQKKVINRGLFVLGSLVAIGSAYILVHHLSPRPLELLRSAWTGTSGHWNRSADISPRVPWSH
For B2, the “kyn-3-OHase activity, cRNA dose-response” value in data set [2] (5 ng cRNA/oocyte, 100 mM of L-kyn) is reported as 35.7 nmoles/h/mg protein. Besides, in data set [2] (setting [5]), the “activity vs that induced by injection of total rat kidney poly(A)+ RNA” value is “about 400 fold” and the “kyn-3-OHase activity, single positive clone” value was 3747 pmoles/h/mg protein.

B3: kyn-3-OHase: kyn-3-OHase isolated from the mitochondrial outer membrane of rat liver, molecular weight of 200,000 Da (protein)
chain: B2 chain
Take B3: the “specific activity of purified enzyme” value in data set [3] is 140 nmol/min/mg. Moreover, the isoelectric point in data set [4] is recorded as 5.4 pH.
